Results reported in US7838495B2, “Compositions and methods of use of EPB1, and ErbB3 binding protein” (University of Maryland, Baltimore, priority 2007, dated 2010).

Key:
Type in all cases: cell-based, human
LNCaP cells [1] = assay: Cell growth assays of LNCaP EPB1 transfectants (complete media, soft agar)
Method: (§1) Cell Growth Assays: To measure growth in complete media, cells (2×10^4) were seeded in triplicate in individual wells of 12-well tissue culture plates in RPMI-1640 with 10% FBS and cultured for the indicated number of days. Cells were trypsinized, stained with Trypan Blue (0.4%), and counted in a hemacytometer. For soft agar growth assays, increasing concentrations of cells (as indicated) were plated in 35 mm Petri dishes in complete media and 0.3% Difco Bacto Agar over an 0.5% agar layer. Colonies were counted after 10 days of incubation. For studies assessing the effect of dihydrotestosterone (DHT) on cell growth, cells (2×10^4) were plated in 12-well plates in complete media. After a 24-hour attachment period, the medium was replaced with steroid-free medium [phenol red-free RPMI 1640 and 5% charcoal-stripped FBS (Sigma)] for 48 hours. The final concentration of testosterone in the steroid-reduced media was less than 5 pM. After 48 hours of steroid depletion, cells were re-fed with fresh steroid-reduced medium with or without the indicated concentrations of DHT and/or bicalutamide (10 μM), and total cell numbers were assessed 7 days later.

LNCaP cells [2] = assay: Growth response of LNCaP vector controls and EBP1 transfectants to DHT and bicalutamide; conditions: LNCaP EBP1 transfectants (vector controls approximately 70%)
Method: as §1

C81 cells = assay: Sensitivity of C81 transfectants to 4 Gy gamma radiation; conditions: C81 EPB1 transfectants, 72 h after exposure (vector less than 10%)
Description: Restoration or increase of EPB1 expression can sensitize the androgen independent prostate cancer C81 cells to radiation. Radiotherapy is another important treatment for locally and regionally advanced prostate cancer. However, resistance of prostate cancer cells to radiation limits its efficacy and dose escalation is obviously not the solution to this common phenomenon. Bcl-2 overexpression may be the same critical molecule underlying the resistance to radiotherapy as to the chemotherapy in prostate cancer. 4 Gy gamma radiation killed 100% of EPB1 transfectants while less than 10% of C81 vector transfectants were dead in 72 h after exposure to the same 4 Gy gamma irradiation. […] Without being bound by theory, it is contemplated that the increase in sensitivity to radiation might be due to the decreased levels of Bcl-2 in EPB1 transfectants given the importance of Bcl-2 function in resistance to radiation.

AU565 cells = assay: Western blot of ErbB2 in AU565 EBP1 transfectants
Method: FIG. 10A-C. Effect of ectopic expression of EBP1 on ErbB3 or ErbB2 protein levels. (A and B) Lysates of logarithmically growing MCF-7 vector control cells (CMV) or EBP1 transfected cells (Ebp1) or (C) AU565 cells were blotted with antibodies for ErbB3 or ErbB2 and actin as indicated. Data are representative of three experiments.
2.5. Western blot analysis. Total cell extracts were prepared by direct lysis of cells with lysis buffer [50 mM Tris-HCl (pH 7.4), 1 mM EDTA, 250 mM NaCl, 1% Triton X-100, 0.5 mM DTT, and 1× Complete™ protease inhibitor]. Protein concentrations were measured using a detergent compatible kit (Bio-Rad). Proteins (30 lg per well) were resolved by SDS-PAGE, transferred to PVDF membranes, and immunoblotted as described. […] Images were quantified using IMAGE-J software (NIH). […] Relative cell numbers were determined 4 days later using a Promega Proliferation Reagent as per manufacturer's instructions with absorbance being read at 490 nm using a Dynex plate reader. […] Data were analyzed using a two-tailed Students t-test and a p <0.05 was deemed statistically significant. […]

B1: EBP1: ErbB3 binding protein (SEQ ID NO: 2), AR corepressor, here ectopically expressed in cancer cells by stable transfection of an expression plasmid (protein, listed as Homo sapiens)
chain: MSGEDEQQEQTIAEDLVVTKYKMGGDIANRVLRSLVEASSSGVSVLSLCEKGDAMIMEETGKIFKKEKEMKKGIAFPTSISVNNCVCHFSPLKSDQDYILKEGDLVKIDLGVHVDGFIANVAHTFVVDVAQGTQVTGRKADVIKAAHLCAEAALRLVKPGNQNTQVTEAWNKVAHSFNCTPIEGMLSHQLKQHVIDGEKTIIQNPTDQQKKDHEKAEFEVHEVYAVDVLVSSGEGKAKDAGQRTTIYKRDPSKQYGLKMKTSRAFFSEVERRFDAMPFTLRAFEDEKKARMGVVECAKHELLQPFNVLYEKEGEFVAQFKFTVLLMPNGPMRITSGPFEPDLYKSEMEVQDAELKALLQSSASRKTQKKKKKKASKTAENATSGETLEENEAGD
modifications: FLAG tag
growth rate in complete media (LNCaP cells [1]; LNCaP EPB1 transfectants vs vector control, p<0.05): significantly decreased | doubling time (LNCaP cells [1]; LNCaP EPB1 transfectants, complete media (vector control 48 hours)): 72 h | decrease of colony growth in soft agar (LNCaP cells [1]; LNCaP, highest cell concentration tested, ten days): approximately 90% | growth inhibition by the withdrawal of androgens (LNCaP cells [2]): 60% | cells killed by 4 Gy gamma radiation (C81 cells): 100% | decrease of ErbB2 protein (AU565 cells): 57%
